Results published in the supplement of paper PMC9170038.

Tested on: MS2 coat protein
Test: apparent KD of MS2 coat protein; designed switch direction (-1 OFF switch, 1 ON switch): -1; higher = weaker reporter binding
In short: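 Three titration conditions were used: no input, 200 uM small-molecule ligand, and an oligonucleotide input. In each, SNAP-549-labelled MS2 coat protein was raised from 0.7 or 1.5 nM, doubling, to 3 µM over designed RNA switches transcribed on Illumina chips by stalled E. coli RNA polymerase. Curve fits of normalised cluster fluorescence gave values whose per-design median over clusters is the apparent KD.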

[1] = input ligand: microRNA oligo, concentration not stated
[2] = Eterna round: R95, input ligand: microRNA oligo, concentration not stated

GUCAGCUCGUCAGGAUAUACAUGAGGAUCACCCAUGUGGUCAAUAGCAGCUUCGGCUGCAUACAUGUAGAAGGGACGAGCUGAC [ENG2/7-B1] (Eterna round: R96, puzzle: Exclusion NG 2)
apparent KD of MS2 coat protein (input ligand: FMN 200 uM): 18.8 nM | apparent KD of MS2 coat protein [1]: 6.88 nM | apparent KD of MS2 coat protein (input ligand: none): 78.2 nM

GUCAGCUCGUCAGGAUAUAUAUACAUGAGGAUCACCCAUGUAAGAUCAGCACUUCGGUGCAGUAUAUAGAAGGGACGAGCUGAC [ENG2/13-B1] (Eterna round: R96, puzzle: Exclusion NG 2)
apparent KD of MS2 coat protein (input ligand: FMN 200 uM): 40.6 nM | apparent KD of MS2 coat protein [1]: 13.7 nM | apparent KD of MS2 coat protein (input ligand: none): 29.1 nM

GUCAGCUCGUGAGGAUAUAUUAACAUGAGGAUCACCCAUGUAAGAUCAGGCUUCGGCCAAUGUUAAUAGAAGGCACGAGCUGAC [ENG2/12-A1] (Eterna round: R96, puzzle: Exclusion NG 2)
apparent KD of MS2 coat protein (input ligand: FMN 200 uM): 739 nM | apparent KD of MS2 coat protein [1]: 38.9 nM | apparent KD of MS2 coat protein (input ligand: none): 72.9 nM

GUCAGGUAUCGAGGAUAUGUGAAAGGAAGUGUAACAGAAGGCGAGGGCUUGACAUGAGGAUCACCCAUGUGAAGUGAUUCGAAG [PowerStrip EXNG 1.22] (Eterna round: R96, puzzle: Exclusion NG 1)
apparent KD of MS2 coat protein (input ligand: FMN 200 uM): 51.8 nM | apparent KD of MS2 coat protein [1]: 52.5 nM | apparent KD of MS2 coat protein (input ligand: none): 62.9 nM

GUCAGGUAUCGAGGAUAUGUGAAAGGAAGUGUAGCAGAAGGCGAGGGCUUGACAUGAGGAUCACCCAUGUGAAGUGAUUCGAAG [17th something] (Eterna round: R96, puzzle: Exclusion NG 1)
apparent KD of MS2 coat protein (input ligand: FMN 200 uM): 76.4 nM | apparent KD of MS2 coat protein [1]: 41 nM | apparent KD of MS2 coat protein (input ligand: none): 64.2 nM

GUCAUCAAACAUGGGAUUAACAUGAGGAUCACCCAUGUUAACAAGUUUUUUGCUCGUCUUAUAAUAAGUUUGAUGAC [Antenna 10 - Jieux - Sensor, turn-off variant 1] (Eterna round: R97, puzzle: Sensor, turn-off variant 1)
apparent KD of MS2 coat protein (input ligand: FMN 200 uM): 7.6 nM | apparent KD of MS2 coat protein (input ligand: none): 13 nM

GUCAUCAAACAUGGGUUAAACAUGAGGAUCACCCAUGUUAUCAAGUUUUUUGCUCGUCUUAUAAUAAGUUUGAUGAC [Antenna 12 - Jieux - Sensor, turn-off variant 1] (Eterna round: R97, puzzle: Sensor, turn-off variant 1)
apparent KD of MS2 coat protein (input ligand: FMN 200 uM): 35.7 nM | apparent KD of MS2 coat protein (input ligand: none): 41 nM

GUCAUCAAUCAUGGGAUAAACAUGAGGAUCACCCAUGUAUACAAGUUUUUUGCUCGUCUUAUAAUAAGAUUGAUGAC [Antenna 5 - Jieux - Sensor, turn-off variant 1] (Eterna round: R97, puzzle: Sensor, turn-off variant 1)
apparent KD of MS2 coat protein (input ligand: FMN 200 uM): 13.7 nM | apparent KD of MS2 coat protein (input ligand: none): 15.9 nM

GUCAUCGCAGGAUAUUAGAAUUUUUACAUGAGGAUCACCCAUGUUAAUUGGGUCUAAGUCUAAGAAGGGCGAUGAA [JR_EX5_Sub012] (Eterna round: R97, puzzle: Exclusion 5)
apparent KD of MS2 coat protein (input ligand: FMN 200 uM): 105 nM | apparent KD of MS2 coat protein (input ligand: none): 32.4 nM

GUCAUGUAAGGAUAUCUUACAUGUGACUUCGGUCACUGUCGAGAGAAGGUACAUGAGGAUCACCCAUGUUCGAC [Ex4-3: 53] (puzzle: Exclusion 4)
apparent KD of MS2 coat protein [2]: 15.6 nM

GUCAUGUUAGGAUAUCUAACAUGUGACUUCGGUCACUGUCCAGAGAAGGAACAUGAGGAUCACCCAUGUUGGAC [Ex4-3: 56] (Eterna round: R96, puzzle: Exclusion 4)
apparent KD of MS2 coat protein (input ligand: FMN 200 uM): 16.5 nM | apparent KD of MS2 coat protein [1]: 13.9 nM | apparent KD of MS2 coat protein (input ligand: none): 18.3 nM

GUCAUGUUAGGAUAUCUAACAUGUGACUUCGGUCACUGUCCAGAGAAGGAACAUGAGGAUCACCCAUGUUGGAC [Ex4-3: 56] (puzzle: Exclusion 4)
apparent KD of MS2 coat protein [2]: 13 nM

GUCAUGUUAGGAUAUGAGCGGCGACUUAGAAUGUUUGCUACUUAGAAGGAACAUGAGGAUCACCCAUGUUCUAU [EX4 C.14] (Eterna round: R97, puzzle: Exclusion 4)
apparent KD of MS2 coat protein (input ligand: FMN 200 uM): 20.2 nM | apparent KD of MS2 coat protein (input ligand: none): 17.2 nM

GUCCAGAUAGGAUAUUGUAAGGGCAACAUGAGGAUCACCCAUGUCGCAAAGAUCGCCCUUCGAGAAGGGUCCAAUU [Eternabot (L1) Solution 39] (Eterna round: R97, puzzle: Exclusion 5)
apparent KD of MS2 coat protein (input ligand: FMN 200 uM): 15.7 nM | apparent KD of MS2 coat protein (input ligand: none): 17.6 nM

GUCCUACAUGAGGAUCACCCAUGUGAGGAUAUGCGAUUAGCUGCUAGGUAGUUAGUAUGUAGAAGGCGCGUGAA [EX1 #78] (Eterna round: R97, puzzle: Exclusion 1)
apparent KD of MS2 coat protein (input ligand: FMN 200 uM): 15.6 nM | apparent KD of MS2 coat protein (input ligand: none): 14.4 nM

GUCCUGGAAUAUCAGAAGCACAUGAGGAUCACCCAUGUCAUGGGUAGAUCAAUAAAUAAAGAUACUGCUCGUCUUAU [Cac sensor turnoff var1 sub4] (Eterna round: R97, puzzle: Sensor, turn-off variant 1)
apparent KD of MS2 coat protein (input ligand: FMN 200 uM): 837 nM | apparent KD of MS2 coat protein (input ligand: none): 228 nM

GUCCUGGAUUAUCACAAGCACAUGAGGAUCACCCAUGUCAUGGGUGGAUCCCUAAAUGGGUAUUCUGCUCGUCUUAU [Cac Sensor turn off v1 sub11] (Eterna round: R97, puzzle: Sensor, turn-off variant 1)
apparent KD of MS2 coat protein (input ligand: FMN 200 uM): 417 nM

GUCCUUAACGAGGAUAUCGGGCGGGUUUUUGUUUGAGAAGGCGUGACAUGAGGAUCACCCAUGUGGCGCGUGGG [-24.6, -21.7 kcal, A 19%] (Eterna round: R97, puzzle: Exclusion 6)
apparent KD of MS2 coat protein (input ligand: FMN 200 uM): 36.7 nM | apparent KD of MS2 coat protein (input ligand: none): 29.7 nM

GUCGAGUGAGGAUAUGGUGAGUAGUGCCUGAGCGCUGCUCACCAGAAGGCACAUGAGGAUCACCCAUGUAUAAC [Mat - Exclusion 4 - Mod of JL - D14] (Eterna round: R96, puzzle: Exclusion 4)
apparent KD of MS2 coat protein (input ligand: FMN 200 uM): 58.1 nM | apparent KD of MS2 coat protein [1]: 19.7 nM | apparent KD of MS2 coat protein (input ligand: none): 26.1 nM

GUCGAGUGAGGAUAUGGUGAGUAGUGCCUGAGCGCUGCUCACCAGAAGGCACAUGAGGAUCACCCAUGUAUAAC [Mat - Exclusion 4 - Mod of JL - D14] (puzzle: Exclusion 4)
apparent KD of MS2 coat protein [2]: 22.3 nM

GUCGAUGUCAAAGGAUAUCAGCACGAUUAGUGCUGAGAAGGUUGAACAUGAGGAUCACCCAUGUAGAUCAUUAACGACUUAAUU [ENG1/10-A2] (Eterna round: R96, puzzle: Exclusion NG 1)
apparent KD of MS2 coat protein (input ligand: FMN 200 uM): 28.4 nM | apparent KD of MS2 coat protein [1]: 14.1 nM | apparent KD of MS2 coat protein (input ligand: none): 18 nM

GUCGAUGUCAAAGGAUAUCAGCACGUGUAGUGCUGAGAAGGUUGAACAUGAGGAUCACCCAUGUAGAUCAUUAACGACUUAAUU [ENG1/10-A3] (Eterna round: R96, puzzle: Exclusion NG 1)
apparent KD of MS2 coat protein (input ligand: FMN 200 uM): 56.1 nM | apparent KD of MS2 coat protein [1]: 20.3 nM | apparent KD of MS2 coat protein (input ligand: none): 22.9 nM

GUCGUGCGGCUUUGCUGUACGAGUACAUGAGGAUCACCCAUGUAGGAUAUGGCUCGCUUUGCGUGCCAGAAGGGCGUGCGUUGG [Excl-NG3-LRO11] (Eterna round: R96, puzzle: Exclusion NG 3)
apparent KD of MS2 coat protein (input ligand: FMN 200 uM): 43.2 nM | apparent KD of MS2 coat protein [1]: 25.6 nM | apparent KD of MS2 coat protein (input ligand: none): 33.6 nM

GUCGUGCGGCUUUGCUGUACGAGUACAUGAGGAUCACCCAUGUAGGAUAUGGUUCGCUUUGCGUGCCAGAAGGGCGUGCGUUGU [Excl-NG3-LRO13] (Eterna round: R96, puzzle: Exclusion NG 3)
apparent KD of MS2 coat protein [1]: 18.9 nM

GUCUAGAGAGGAUAUAUUUACACUGUACGUCGGAUGAUUGCACUUGAGGAUCACCCAAGUAGAAGGCUCGAGGG [EX2 #33] (Eterna round: R97, puzzle: Exclusion 2)
apparent KD of MS2 coat protein (input ligand: FMN 200 uM): 130 nM | apparent KD of MS2 coat protein (input ligand: none): 112 nM

GUCUCACAUGAGGAUCACCCAUGUGAGGAUAUGGUUUCGCUGGCCGUAGCCAGUGGAACCAGAAGGCGCGUGAU [Mat - Exclusion 1 - JL Mod - D18] (Eterna round: R97, puzzle: Exclusion 1)
apparent KD of MS2 coat protein (input ligand: FMN 200 uM): 71.1 nM | apparent KD of MS2 coat protein (input ligand: none): 65 nM

GUCUGCACGCUGCGGUCCUACAUGAGGAUCACCCAUGUGGUCUGGUGGCGUGGGUCACCGGACUUGGCUCGUCUUGC [salish99_S_TOV1_R5_052] (Eterna round: R97, puzzle: Sensor, turn-off variant 1)
apparent KD of MS2 coat protein (input ligand: FMN 200 uM): 19.1 nM | apparent KD of MS2 coat protein (input ligand: none): 18.9 nM

GUCUUACAUGAGGAUCACCCAUGUGAGGAUAUGGUUUCGCUGGCCGUAGCCAGUGGAACCAGAAGGCGCGUGAU [Mat - Exclusion 1 - JL Mod - D20] (Eterna round: R97, puzzle: Exclusion 1)
apparent KD of MS2 coat protein (input ligand: FMN 200 uM): 73.1 nM | apparent KD of MS2 coat protein (input ligand: none): 72.8 nM

GUGAAACAUGAGGAUCACCCAUGUGAGGAUAUGUUUAAGUAAUGAUGAAAGUAUAUAUACAGAAGGCACAAUGG [Mat - Mod of JL D72] (puzzle: Exclusion 1)
apparent KD of MS2 coat protein (Eterna round: R95, input ligand: FMN 200 uM): 142 nM | apparent KD of MS2 coat protein [2]: 71.5 nM | apparent KD of MS2 coat protein (Eterna round: R95, input ligand: none): 64.4 nM

GUGAAACAUGAGGAUCACCCAUGUGAGGAUAUGUUUUAGUACUGCUGACAGUACAUCUAUAGAAGGCACAAAGG [Mat - Mod of JL D69] (puzzle: Exclusion 1)
apparent KD of MS2 coat protein [2]: 25.4 nM
